The text below walks through data of PMC8624677 (The Journal of Cell Biology, 2021).

To fix the notation:
B1: cyt-ATL1 H435C (domain or fragment, human, UniProt Q8WXF7 1-446, looked up)
chain: MAKNRRDRNSWGGFSEKTYEWSSEEEEPVKKAGPVQVLIVKDDHSFELDETALNRILLSEAVRDKEVVAVSVAGAFRKGKSFLMDFMLRYMYNQESVDWVGDYNEPLTGFSWRGGSERETTGIQIWSEIFLINKPDGKKVAVLLMDTQGTFDSQSTLRDSATVFALSTMISSIQVYNLSQNVQEDDLQHLQLFTEYGRLAMEETFLKPFQSLIFLVRDWSFPYEFSYGADGGAKFLEKRLKVSGNQHEELQNVRKHIHSCFTNISCFLLPHPGLKVATNPNFDGKLKEIDDEFIKNLKILIPWLLSPESLDIKEINGNKITCRGLVEYFKAYIKIYQGEELPHPKSMLQATAEANNLAAVATAKDTYNKKMEEICGGDKPFLAPNDLQTKHLQLKEESVKLFRGVKKMGGEEFSRRYLQQLESEIDELYIQYIKCNDSKNIFHAAR
modifications: Cy3 maleimide on the engineered 3HB cysteine H435C
B2: cyt-DATL H410C (domain or fragment)
chain: MGGSAVQVINASEEHTFVLNEDALSEVLMRDEVKDRFVCVVSVAGAFRKGKSFLLDFFLRYMYSKYVHHDATDWLGGESDPLEGFSWRGGSERDTTGILMWSDIFLHDYPNGDKIAIILLDTQGAFDSQSTVRDCATVFALSTMLSSVQIYNLSQNIQEDDLQHLQLFTEYGRLALADTGKKPFQRLQFLVRDWSFPYEAEYGALGGDKILKRRLEVSDKQHPELQSLRRHISSCFTEVACFLMPHPGLNVATNPKFDGRLQDITPEFKSSLRSLVPMLLAPDNLVYKEISGQRVRARDLIQYFQSYMNIYKGNELPEPKSMLVATAEANHLTAVAAAKELYGQLMEEVCGGTRPYLSTAHLQTEHLRVKDKALFQFAAKRKMGGEEFTEKFRKQLEDDLEEVFTNYQACNESKN
modifications: Cy3 maleimide on the engineered 3HB cysteine H410C
B3: cyt-ATL2 H462C (also C59A, C143A, C395N, and C441A) (domain or fragment, human, UniProt Q8NHH9 1-467, looked up)
chain: MAEGDEAARGQQPHQGLWRRRRTSDPSAAVNHVSSTTSLGENYEDDDLVNSDEVMKKPAPVQIVLAHEDDHNFELDEEALEQILLQEHIRDLNIVVVSVAGAFRKGKSFLLDFMLRYMYNKDSQSWIGGNNEPLTGFTWRGGAERETTGIQVWNEVFVIDRPNGTKVAVLLMDTQGAFDSQSTIKDCATVFALSTMTSSVQVYNLSQNIQEDDLQHLQLFTEYGRLAMEEIYQKPFQTLMFLIRDWSYPYEHSYGLEGGKQFLEKRLQVKQNQHEELQNVRKHIHNCFSNLGCFLLPHPGLKVATNPSFDGRLKDIDEDFKRELRNLVPLLLAPENLVEKEISGSKVTCRDLVEYFKAYIKIYQGEELPHPKSMLQATAEANNLAAVAGARDTYNKSMEQVCGGDKPYIAPSDLERKHLDLKEVAIKQFRSVKKMGGDEFARRYQDQLEAEIEETYANFIKCNDGKN
modifications: Cy3 maleimide on the engineered 3HB cysteine H462C
B4: cyt-ATL1(1–446) N281C (domain or fragment, human, UniProt Q8WXF7 1-446, looked up)
chain: MAKNRRDRNSWGGFSEKTYEWSSEEEEPVKKAGPVQVLIVKDDHSFELDETALNRILLSEAVRDKEVVAVSVAGAFRKGKSFLMDFMLRYMYNQESVDWVGDYNEPLTGFSWRGGSERETTGIQIWSEIFLINKPDGKKVAVLLMDTQGTFDSQSTLRDSATVFALSTMISSIQVYNLSQNVQEDDLQHLQLFTEYGRLAMEETFLKPFQSLIFLVRDWSFPYEFSYGADGGAKFLEKRLKVSGNQHEELQNVRKHIHSCFTNISCFLLPHPGLKVATNPCFDGKLKEIDDEFIKNLKILIPWLLSPESLDIKEINGNKITCRGLVEYFKAYIKIYQGEELPHPKSMLQATAEANNLAAVATAKDTYNKKMEEICGGDKPFLAPNDLQTKHLQLKEESVKLFRGVKKMGGEEFSRRYLQQLESEIDELYIQYIKHNDSKNIFHAAR
modifications: Alexa Fluor 488 (donor) or 647 (acceptor) maleimide on the engineered G-domain cysteine N281C
B5: cyt-DATL(1–415) S270C (domain or fragment)
chain: MGGSAVQVINASEEHTFVLNEDALSEVLMRDEVKDRFVCVVSVAGAFRKGKSFLLDFFLRYMYSKYVHHDATDWLGGESDPLEGFSWRGGSERDTTGILMWSDIFLHDYPNGDKIAIILLDTQGAFDSQSTVRDCATVFALSTMLSSVQIYNLSQNIQEDDLQHLQLFTEYGRLALADTGKKPFQRLQFLVRDWSFPYEAEYGALGGDKILKRRLEVSDKQHPELQSLRRHISSCFTEVACFLMPHPGLNVATNPKFDGRLQDITPEFKCSLRSLVPMLLAPDNLVYKEISGQRVRARDLIQYFQSYMNIYKGNELPEPKSMLVATAEANHLTAVAAAKELYGQLMEEVCGGTRPYLSTAHLQTEHLRVKDKALFQFAAKRKMGGEEFTEKFRKQLEDDLEEVFTNYQAHNESKN
modifications: Alexa Fluor 488 (donor) or 647 (acceptor) maleimide on the engineered G-domain cysteine S270C
B6: cyt-ATL2(1–467) S308C (also C59A, C143A, C395N, and C441A) (domain or fragment, human, UniProt Q8NHH9 1-467, looked up)
chain: MAEGDEAARGQQPHQGLWRRRRTSDPSAAVNHVSSTTSLGENYEDDDLVNSDEVMKKPAPVQIVLAHEDDHNFELDEEALEQILLQEHIRDLNIVVVSVAGAFRKGKSFLLDFMLRYMYNKDSQSWIGGNNEPLTGFTWRGGAERETTGIQVWNEVFVIDRPNGTKVAVLLMDTQGAFDSQSTIKDCATVFALSTMTSSVQVYNLSQNIQEDDLQHLQLFTEYGRLAMEEIYQKPFQTLMFLIRDWSYPYEHSYGLEGGKQFLEKRLQVKQNQHEELQNVRKHIHNCFSNLGCFLLPHPGLKVATNPCFDGRLKDIDEDFKRELRNLVPLLLAPENLVEKEISGSKVTCRDLVEYFKAYIKIYQGEELPHPKSMLQATAEANNLAAVAGARDTYNKSMEQVCGGDKPYIAPSDLERKHLDLKEVAIKQFRSVKKMGGDEFARRYQDQLEAEIEETYANFIKHNDGKN
modifications: Alexa Fluor 488 (donor) or 647 (acceptor) maleimide on the engineered G-domain cysteine S308C

One data set deals with the molecule itself. Kind of data set: PIFE.
As to B1, the binding result is given as “binds”.
On the same count and under the same terms, in the case of B2 it was “binds”; in that of B3, “binds”.

A further data set concerns the molecule itself. Kind of data set: FRET or BRET. (Bioluminescence resonance energy transfer reports proximity on the nanometre scale.)
As to B4, the binding result is on record as “binds”.
Still for that read-out and setting: in the case of B5 it was “binds”; in that of B6, “binds”.
